# Data published in US20240425603A1 (Janssen / Centocor, published 2024).
# T1: mouse VEGFR1 (soluble antigen of the KinExA and SPR affinity assays) (mouse, UniProt P35969 23-759, limits assumed)
# T1 sequence (looked up): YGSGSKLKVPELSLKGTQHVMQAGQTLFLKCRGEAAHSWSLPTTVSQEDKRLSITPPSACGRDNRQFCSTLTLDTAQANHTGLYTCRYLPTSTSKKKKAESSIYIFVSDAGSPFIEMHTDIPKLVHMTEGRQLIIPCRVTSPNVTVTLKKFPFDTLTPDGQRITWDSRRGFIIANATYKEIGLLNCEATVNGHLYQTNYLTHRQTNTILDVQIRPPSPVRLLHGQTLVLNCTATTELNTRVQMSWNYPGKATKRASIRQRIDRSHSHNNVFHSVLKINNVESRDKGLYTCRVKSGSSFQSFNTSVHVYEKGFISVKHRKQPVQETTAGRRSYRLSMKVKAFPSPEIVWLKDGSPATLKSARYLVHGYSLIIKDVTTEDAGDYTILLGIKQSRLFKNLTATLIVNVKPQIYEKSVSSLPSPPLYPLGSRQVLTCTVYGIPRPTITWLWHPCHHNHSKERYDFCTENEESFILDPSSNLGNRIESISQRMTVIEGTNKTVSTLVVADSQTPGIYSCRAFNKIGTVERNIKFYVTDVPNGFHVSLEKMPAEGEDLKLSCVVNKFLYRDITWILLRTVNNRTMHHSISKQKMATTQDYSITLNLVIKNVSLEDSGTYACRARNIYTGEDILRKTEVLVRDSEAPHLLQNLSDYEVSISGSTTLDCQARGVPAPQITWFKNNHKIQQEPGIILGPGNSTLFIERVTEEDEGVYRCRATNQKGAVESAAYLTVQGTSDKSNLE
# T2: Recombinant mouse VEGFR1-Fc (R&D Systems) (mouse, UniProt P35969 27-759, limits assumed)
# T2 construct: bought; not shown: Fc part of the bought fusion, not described
# T2 sequence (looked up): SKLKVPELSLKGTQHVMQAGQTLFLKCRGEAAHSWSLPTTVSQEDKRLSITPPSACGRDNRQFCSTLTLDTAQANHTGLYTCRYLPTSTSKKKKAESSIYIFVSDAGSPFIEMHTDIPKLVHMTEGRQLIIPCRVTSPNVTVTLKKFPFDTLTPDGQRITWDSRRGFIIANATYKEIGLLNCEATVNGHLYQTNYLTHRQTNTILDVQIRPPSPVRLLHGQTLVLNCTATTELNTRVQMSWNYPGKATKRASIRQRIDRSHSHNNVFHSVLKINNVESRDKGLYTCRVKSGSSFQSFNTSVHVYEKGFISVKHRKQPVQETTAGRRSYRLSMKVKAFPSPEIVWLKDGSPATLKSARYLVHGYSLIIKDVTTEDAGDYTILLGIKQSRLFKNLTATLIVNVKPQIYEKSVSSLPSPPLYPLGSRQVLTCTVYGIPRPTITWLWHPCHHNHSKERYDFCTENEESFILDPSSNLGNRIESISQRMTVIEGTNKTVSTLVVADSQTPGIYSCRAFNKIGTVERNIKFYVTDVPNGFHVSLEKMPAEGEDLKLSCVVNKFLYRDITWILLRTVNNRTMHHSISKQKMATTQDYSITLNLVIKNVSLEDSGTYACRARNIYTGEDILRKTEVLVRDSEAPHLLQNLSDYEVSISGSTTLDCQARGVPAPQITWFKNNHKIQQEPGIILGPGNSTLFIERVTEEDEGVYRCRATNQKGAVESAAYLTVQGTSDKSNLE
# B1: VGFB883 (antibody, human IgG1, lambda, L234A L235A, V domains shown)
# VH: EVQLLESGGGSVQPGGSLRLSCTASGFNFEDYGMNWVRQAPGKGLDWVSSINRQGDISTYHVDSVKGRFTISRDNSKNTLYLQMNSLRAEDTAIYYCTKNHDYHGMDVWGQGTTVTVSS
# VL: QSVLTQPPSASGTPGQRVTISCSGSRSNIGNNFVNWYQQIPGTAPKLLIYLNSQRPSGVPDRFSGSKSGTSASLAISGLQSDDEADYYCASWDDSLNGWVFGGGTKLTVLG
# notes: human IgG1 (L234A/L235A/D265S); also called N54Q variant of VGFB54
# B2: human VEGFA165 (ligand, UniProt P15692-4 27-191, looked up)
# chain: APMAEGGGQNHHEVVKFMDVYQRSYCHPIETLVDIFQEYPDEIEYIFKPSCVPLMRCGGCCNDEGLECVPTEESNITMQIMRIKPHQGQHIGEMSFLQHNKCECRPKKDRARQENPCGPCSERRKHLFVQDPQTCKCSCKNTDSRCKARQLELNERTCRCDKPRR
# notes: used unlabeled and biotin labeled; also called human VEGF165 (R&D Systems); hVEGFA165
# B3: Domain 2 of hVEGFR1 alone (receptor)
# chain: DTGRPFVEMYSEIPEIIHMTEGRELVIPCRVTSPNITVTLKKFPLDTLIPDGKRIIWDSRKGFIISNATYKEIGLLTCEATVNGHLYKTNYLTHRQ
# notes: also called human VEGFR1 D2
# B4: mouse VEGFA164 (ligand, UniProt Q00731-2 27-190, looked up)
# chain: APTTEGEQKSHEVIKFMDVYQRSYCRPIETLVDIFQEYPDEIEYIFKPSCVPLMRCAGCCNDEALECVPTSESNITMQIMRIKPHQSQHIGEMSFLQHSRCECRPKKDRTKPENHCEPCSERRKHLFVQDPQTCKCSCKNTDSRCKARQLELNERTCRCDKPRR
# notes: also called VEGFA (mouse VEGFR1 columns)
# B5: human PlGF (ligand, UniProt P49763-2 19-149, looked up)
# chain: LPAVPPQQWALSAGNGSSEVEVVPFQEVWGRSYCRALERLVDVVSEYPSEVEHMFSPSCVSLLRCTGCCGDENLHCVPVETANVTMQLLKIRSGDRPSYVELTFSQHVRCECRPLREKMKPERCGDAVPRR
# notes: ligand on human and cyno VEGFR1; also called placental growth factor
# Assays:
# [1] = target: human VEGFR1 (soluble antigen of the KinExA and SPR affinity assays) (human, UniProt P17948 27-758, limits assumed); test: KinExA, solution
# Method: (§1) Kinetic exclusion assay (KEA; KinExA) was used to analyze the binding of anti-VEGFR1 antibodies to human, mouse and cynomolgus monkeys VEGFR1. KEA is a fluorescence-based solution method, and it is described in detail in the literature (Darling and Brault, 2004). To measure the affinity of an interaction, a series of solutions with a fixed concentration of one interactant (A) and varying concentrations of another interactant (B) are prepared and allowed to reach equilibrium. After equilibration, the concentration of free A is determined by flowing the equilibrated mixture through a column packed with beads modified with reactant B. Free A binds to the beads and is then detected using a fluorescently labeled polyclonal antibody.
# (§2) Briefly, fixed concentrations (300 pM, 60 pM, 12 pM, 2.4 or 0.5 pM) of Ab were used to prepare a serial dilution of the antigen (2 nM to 0.52 pM, or 800 pM to 5.37 fM). The complex titrations were incubated at RT to reach binding equilibrium for at least 2 days. After incubation, the samples were run on the KinExA3200 or KinExA4000 instrument to assess free antibody in the reaction. During these studies some of the data were rejected because the experiments failed or failed the acceptance criteria. For mouse VEGFR1 the 60 and 300 pM concentrations were rejected due to high titrant related NSB. The dissociation equilibrium constant, (KD), was determined using the n-curve analysis feature of the KinExA Pro software. This program uses nonlinear least-square regression analysis of the globally fitted data to a 1:1 binding model. (CI=confidence interval).
# [2] = target: cynomolgus monkey VEGFR1 (soluble antigen of the KinExA and SPR affinity assays) (cynomolgus monkey); test: KinExA, solution
# Method: as §1, §2
# [3] = target: T1, mouse VEGFR1 (soluble antigen of the …); test: KinExA, solution
# Method: as §1, §2
# [4] = target: T3, human VEGFR1, full length, over-expressed on cells (human, UniProt P17948 27-1338); test: cell binding assay (column head prints IC50)
# T3 construct: on CHO-K1 or HEK cells; also called hVEGFR1; CHOK1/ human VEGFR1
# [5] = target: T4, Recombinant human VEGFR1-Fc (R&D Systems) (human, UniProt P17948 27-687, limits assumed); test: biochemical ligand blocking assay; ligand and receptor form not given
# T4 construct: bought; not shown: Fc part of the bought fusion, not described
# Procedure, shortened: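 Antibodies in half-log dilutions were pre-incubated for 30 minutes with recombinant VEGFR1-Fc bound to Protein A/G-coated MSD plates, after which biotinylated ligand was added. Sulfo-tagged streptavidin and an MSD imager were used for detection in this electro-chemiluminescence ligand blocking assay, and IC50 was calculated from the readings.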
# [6] = target: recombinant human VEGFR1 (D1-D3) (human, UniProt P17948 27-328, limits assumed); test: SPR; VEGFR1 D1-D3
# human VEGFR1 (D2-D3) = human VEGFR1 (D2-D3) (human, UniProt P17948 130-331); test: SPR; VEGFR1 D2-D3
# [7] = target: T4, Recombinant human VEGFR1-Fc (R&D …); test: MSD ECL competition on plate-bound human VEGFR1-Fc; competitor biotin human VEGFA165 (0.2 nM)
# Procedure, shortened: (§3)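 Half-log antibody dilutions were pre-incubated for 30 minutes with VEGFR1 (human or mouse Fc fusion, or His-tagged cyno; 0.5 ug/ml) that had been captured for 1 hour at room temperature on blocked MSD 384 plates coated with Protein A/G or anti-His mAb. Biotinylated VEGFA (0.2 nM) or PlGF (2 nM) was then added and bound ligand was read with Sulfo-tagged streptavidin on an MSD SECTOR S 600 imager. IC50 and maximal percent inhibition were calculated from the electro-chemiluminescence readings.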
# His tagged cyno VEGFR1 [8] = target: T5, His tagged cyno VEGFR1 (cynomolgus monkey, UniProt A0A2K5VAF2 27-758); test: MSD ECL competition on plate-bound His-tagged cyno VEGFR1; competitor biotin human VEGFA165 (0.2 nM)
# Procedure, shortened: as §3
# human VEGFA165 [9] = target: B2; test: SPR; VEGFR1 D2 alone
# human VEGFA165 [10] = target: B2; test: SPR; against the D1-D3 and D2-D3 constructs
# [11] = target: T2, Recombinant mouse VEGFR1-Fc (R&D …); test: MSD ECL competition on plate-bound mouse VEGFR1-Fc; competitor biotin mouse VEGFA164 (0.2 nM)
# Procedure, shortened: as §3
# [12] = target: T4, Recombinant human VEGFR1-Fc (R&D …); test: MSD ECL competition on plate-bound human VEGFR1-Fc; competitor biotin PlGF (2 nM)
# Procedure, shortened: as §3
# His tagged cyno VEGFR1 [13] = target: T5, His tagged cyno VEGFR1; test: MSD ECL competition on plate-bound His-tagged cyno VEGFR1; competitor biotin human PlGF (2 nM)
# Procedure, shortened: as §3
# T4 sequence (P17948 27-687 limits assumed): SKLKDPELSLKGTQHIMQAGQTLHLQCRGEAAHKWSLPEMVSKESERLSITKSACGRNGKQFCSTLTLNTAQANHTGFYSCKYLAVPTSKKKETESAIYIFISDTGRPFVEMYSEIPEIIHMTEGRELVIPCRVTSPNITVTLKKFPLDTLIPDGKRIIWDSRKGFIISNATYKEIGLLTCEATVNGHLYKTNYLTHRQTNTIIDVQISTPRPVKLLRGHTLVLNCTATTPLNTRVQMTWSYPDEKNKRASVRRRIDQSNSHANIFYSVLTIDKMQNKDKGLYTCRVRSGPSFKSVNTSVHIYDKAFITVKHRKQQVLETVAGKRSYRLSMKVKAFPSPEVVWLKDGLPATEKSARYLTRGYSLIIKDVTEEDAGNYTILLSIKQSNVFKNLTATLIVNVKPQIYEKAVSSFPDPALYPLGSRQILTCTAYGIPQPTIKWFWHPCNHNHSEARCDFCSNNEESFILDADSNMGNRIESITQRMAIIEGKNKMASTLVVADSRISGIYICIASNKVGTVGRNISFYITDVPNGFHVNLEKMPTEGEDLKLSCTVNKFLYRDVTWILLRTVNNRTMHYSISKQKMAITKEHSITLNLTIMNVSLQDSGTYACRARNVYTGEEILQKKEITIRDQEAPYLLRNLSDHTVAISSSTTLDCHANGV
# Chain of recombinant human VEGFR1 (D1-D3) (P17948 27-328 limits assumed): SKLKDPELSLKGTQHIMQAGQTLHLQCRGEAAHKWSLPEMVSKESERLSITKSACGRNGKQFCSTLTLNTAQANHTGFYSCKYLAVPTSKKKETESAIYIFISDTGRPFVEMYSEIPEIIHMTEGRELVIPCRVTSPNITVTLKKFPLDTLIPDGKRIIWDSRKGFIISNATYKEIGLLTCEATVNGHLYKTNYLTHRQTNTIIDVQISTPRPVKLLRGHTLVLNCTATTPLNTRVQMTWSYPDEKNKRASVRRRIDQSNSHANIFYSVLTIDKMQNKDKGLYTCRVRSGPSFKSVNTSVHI
# Chain of human VEGFR1 (soluble antigen of the KinExA and SPR affinity assays) (P17948 27-758 limits assumed): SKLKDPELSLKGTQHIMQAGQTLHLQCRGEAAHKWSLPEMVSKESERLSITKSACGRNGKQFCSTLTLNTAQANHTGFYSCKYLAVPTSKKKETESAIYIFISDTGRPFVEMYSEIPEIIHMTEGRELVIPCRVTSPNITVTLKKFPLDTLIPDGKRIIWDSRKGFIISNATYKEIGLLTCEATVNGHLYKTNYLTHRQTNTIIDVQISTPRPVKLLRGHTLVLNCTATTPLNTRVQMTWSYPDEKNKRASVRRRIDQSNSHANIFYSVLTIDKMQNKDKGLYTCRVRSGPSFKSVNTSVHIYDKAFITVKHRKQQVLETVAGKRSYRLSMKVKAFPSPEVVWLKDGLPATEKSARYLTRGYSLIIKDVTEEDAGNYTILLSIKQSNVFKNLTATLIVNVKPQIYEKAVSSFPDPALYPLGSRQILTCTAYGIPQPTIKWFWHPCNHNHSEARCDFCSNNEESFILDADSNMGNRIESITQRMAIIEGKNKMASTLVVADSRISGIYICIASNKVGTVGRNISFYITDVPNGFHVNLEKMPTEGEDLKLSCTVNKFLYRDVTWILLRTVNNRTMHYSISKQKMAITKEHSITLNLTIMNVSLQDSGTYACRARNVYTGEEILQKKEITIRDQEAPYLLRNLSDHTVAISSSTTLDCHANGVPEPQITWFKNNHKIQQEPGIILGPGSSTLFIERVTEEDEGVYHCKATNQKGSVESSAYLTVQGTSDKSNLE
# T3 sequence (P17948 27-1338 limits assumed): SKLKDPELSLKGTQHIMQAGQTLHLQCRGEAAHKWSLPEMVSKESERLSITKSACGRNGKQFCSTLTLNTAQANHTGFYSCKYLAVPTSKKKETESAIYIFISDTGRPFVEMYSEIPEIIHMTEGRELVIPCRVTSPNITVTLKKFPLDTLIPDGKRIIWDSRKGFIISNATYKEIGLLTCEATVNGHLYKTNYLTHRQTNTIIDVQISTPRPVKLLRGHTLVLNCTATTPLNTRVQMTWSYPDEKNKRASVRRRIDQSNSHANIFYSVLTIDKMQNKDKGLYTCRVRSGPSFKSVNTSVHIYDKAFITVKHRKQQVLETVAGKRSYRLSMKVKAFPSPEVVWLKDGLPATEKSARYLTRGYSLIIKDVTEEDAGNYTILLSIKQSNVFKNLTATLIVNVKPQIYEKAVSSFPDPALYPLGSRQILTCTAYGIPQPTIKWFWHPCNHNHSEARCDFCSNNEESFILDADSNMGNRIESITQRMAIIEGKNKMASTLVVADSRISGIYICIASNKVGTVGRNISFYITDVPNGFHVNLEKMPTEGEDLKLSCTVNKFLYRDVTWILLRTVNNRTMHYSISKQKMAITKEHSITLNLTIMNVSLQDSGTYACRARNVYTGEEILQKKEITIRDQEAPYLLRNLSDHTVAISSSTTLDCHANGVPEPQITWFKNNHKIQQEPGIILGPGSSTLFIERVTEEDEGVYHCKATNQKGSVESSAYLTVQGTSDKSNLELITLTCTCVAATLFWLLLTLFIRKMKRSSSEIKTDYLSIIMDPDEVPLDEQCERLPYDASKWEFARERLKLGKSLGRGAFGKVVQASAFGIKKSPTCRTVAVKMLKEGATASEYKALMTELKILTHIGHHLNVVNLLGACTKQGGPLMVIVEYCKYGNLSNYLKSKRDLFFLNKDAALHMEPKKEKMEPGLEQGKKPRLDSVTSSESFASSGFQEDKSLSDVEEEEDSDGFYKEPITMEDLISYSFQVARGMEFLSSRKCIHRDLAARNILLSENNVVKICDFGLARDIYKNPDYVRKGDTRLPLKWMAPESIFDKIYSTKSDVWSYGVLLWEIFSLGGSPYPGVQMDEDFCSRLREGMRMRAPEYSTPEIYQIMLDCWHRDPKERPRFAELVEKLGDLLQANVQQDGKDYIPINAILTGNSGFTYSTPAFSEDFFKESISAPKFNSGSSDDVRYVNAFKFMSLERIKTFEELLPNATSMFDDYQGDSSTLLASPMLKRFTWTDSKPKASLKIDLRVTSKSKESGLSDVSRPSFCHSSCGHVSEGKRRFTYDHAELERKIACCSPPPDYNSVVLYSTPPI
binder,measurement,setting,value
B1,Kd,[1],~0.0002 nM
same,Kd,[2],~0.0005 nM
same,Kd,[3],> 2 nM
same,IC50,[4],0.0655 nM
same,IC50,[5],0.044 nM
B2,Kd,[6],< 0.045 nM
same,Kd,human VEGFR1 (D2-D3),< 0.03 nM
same,IC50,[7],0.156 nM
same,Max % Inh.,[7],100%
same,IC50,His tagged cyno VEGFR1 [8],0.261 nM
same,Max % Inh.,His tagged cyno VEGFR1 [8],100%
B3,Kd,human VEGFA165 [9],22 nM
same,fold reduction in affinity,human VEGFA165 [10],~1000 fold
B4,IC50,[11],0.15 nM
same,Max % Inh.,[11],99.9%
B5,IC50,[12],8.92 nM
same,Max % Inh.,[12],98.6%
same,IC50,His tagged cyno VEGFR1 [13],13.3 nM
same,Max % Inh.,His tagged cyno VEGFR1 [13],99.2%
